Results as given in PMC11532494 (Nature Communications, 2024).
Several values for one entry are separate records, joined by “and”; a condition that tells them apart may be missing. Identical values can stand only once. Like-named read-outs stand apart in the source and are kept apart here. No end group written: not given here. *: point of attachment. AMC = Cc1cc(=O)oc2cc(N*)ccc12

Key:
[1] = tested on: VsHdaH (1b); type: biochemical, Vibrio sp.
[2] = tested on: RsPrpH (1b); assay: Substrate screening assay (acyl-peptide-AMC); type: biochemical, Rhizorhabdus sp.
[3] = biological target: RwDmhA (1b) (Rhizorhabdus wittichii, UniProt A0A067XIQ6); type: biochemical
[4] = biological target: KpHdaH (1b) (Klebsiella pneumoniae, UniProt A0A377Z5F6); type: biochemical
[5] = biological target: T1, BsAcuC (2c) (Bacillus subtilis, UniProt P39067); assay: Substrate screening assay (acyl-peptide-AMC); type: biochemical
T1 construct: made in house; host or cells: E. coli BL21 (DE3)
T1 sequence (P39067 1-387): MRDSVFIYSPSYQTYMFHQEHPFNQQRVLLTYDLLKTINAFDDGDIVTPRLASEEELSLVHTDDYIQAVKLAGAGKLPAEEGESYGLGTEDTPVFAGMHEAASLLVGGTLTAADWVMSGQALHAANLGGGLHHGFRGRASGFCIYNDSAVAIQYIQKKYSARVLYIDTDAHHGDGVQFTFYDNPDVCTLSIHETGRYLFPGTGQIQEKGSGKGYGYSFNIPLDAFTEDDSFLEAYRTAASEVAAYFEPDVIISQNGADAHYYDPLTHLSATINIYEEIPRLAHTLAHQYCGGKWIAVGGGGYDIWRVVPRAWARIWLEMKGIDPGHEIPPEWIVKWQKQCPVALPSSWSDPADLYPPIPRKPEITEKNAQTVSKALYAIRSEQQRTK
Experimental: (§1) Experiments with SIRT2 and SIRT5 were supplemented with NAD^+ (500 µM). Thereafter, a solution of trypsin (25 µL, 5.0 mg/mL; final concentration of 2.5 mg/mL) was added, and the development of the assay was allowed to proceed for 90 min at room temperature before fluorescence analysis. […] To this end, a single category is given to all conversions >48% on the heatmap. […] For the H4-derived peptide LGKbio no positive control was available.

[6] = tested on: VcHdaH (5b); type: biochemical, Vibrio cholerae
[7] = biological target: PsApaH (4) (Pseudomonas sp. M30-35, UniProt A0A1Y0KY79); type: biochemical
Experimental: as §1

[8] = biological target: LcApaH (3) (Legionella cherrii, UniProt A0A0W0SGS1); type: biochemical
[9] = biological target: LpApaH (3) (Legionella pneumophila, UniProt A0A2S6EWV0); type: biochemical
[10] = tested on: Controls; type: biochemical
[11] = tested on: Controls; type: biochemical; remark: listed apart in the source
[12] = substrate screening, mean of two measurements
[13] = substrate screening, measurement 1 of two
[14] = substrate screening, measurement 2 of two

Substance: QPKKhex (QPKK-{AMC}; not fully specified (residue 4); printed as QPKKhex; also: hexanoyl-lysine (which Lys not given here); UniProt P04637 317-320, looked up, fragment)
- RFU means, VsHdaH (1b) ([1]; means of two measurements): 66.5 RFU
- RFU*2 means, VsHdaH (1b) ([1]; means of two measurements): 133 RFU*2
- [AMC] (nM), VsHdaH (1b), means [1, 12]: 64.94 nM
- [AMC] (nM), VsHdaH (1b) [1, 13]: 35.16 nM
- [AMC] (nM), VsHdaH (1b) [1, 14]: 94.73 nM
- RFU means, RsPrpH (1b) [2]: -23.5 RFU
- RFU*2 means, RsPrpH (1b) [2]: -47 RFU*2
- [AMC] (nM), RsPrpH (1b), means [2]: -22.95 nM
- RFU means, RwDmhA (1b) [3]: 55 RFU
- RFU*2 means, RwDmhA (1b) [3]: 110 RFU*2
- [AMC] (nM), RwDmhA (1b), means [3]: 53.71 nM
- RFU means, KpHdaH (1b) ([4]; means of two measurements): 92 RFU
- RFU*2 means, KpHdaH (1b) ([4]; means of two measurements): 184 RFU*2
- [AMC] (nM), KpHdaH (1b), means [4, 12]: 89.84 nM
- [AMC] (nM), KpHdaH (1b) [4, 13]: 166.02 nM
- [AMC] (nM), KpHdaH (1b) [4, 14]: 13.67 nM
- RFU means, BsAcuC (2c) ([5]; means of two measurements): 1487.5 RFU
- RFU*2 means, BsAcuC (2c) ([5]; means of two measurements): 2975 RFU*2
- [AMC] (nM), BsAcuC (2c), means [5, 12]: 1452.64 nM
- RFU*2, BsAcuC (2c) ([5]; two measurements, single values): 3440 RFU*2 and 2510 RFU*2
- RFU means, VcHdaH (5b) ([6]; means of two measurements): 50.5 RFU
- RFU*2 means, VcHdaH (5b) ([6]; means of two measurements): 101 RFU*2
- [AMC] (nM), VcHdaH (5b), means [6, 12]: 49.32 nM
- RFU means, PsApaH (4) ([7]; means of two measurements): 94.5 RFU
- RFU*2 means, PsApaH (4) ([7]; means of two measurements): 189 RFU*2
- [AMC] (nM), PsApaH (4), means [7, 12]: 92.29 nM
- [AMC] (nM), PsApaH (4) [7, 13]: 125.00 nM
- [AMC] (nM), PsApaH (4) [7, 14]: 59.57 nM
- RFU means, LcApaH (3) [8]: 70 RFU
- RFU*2 means, LcApaH (3) [8]: 140 RFU*2
- [AMC] (nM), LcApaH (3), means [8]: 68.36 nM
- RFU means, LpApaH (3) [9]: 57.5 RFU
- RFU*2 means, LpApaH (3) [9]: 115 RFU*2
- [AMC] (nM), LpApaH (3), means [9]: 56.15 nM
- RFU means, controls [10]: 3600.5 RFU
- RFU*2, controls [10]: 6176 RFU*2 and 8226 RFU*2
- RFU*2 means, controls [10]: 7201 RFU*2
- RFU, controls [10]: 3088 RFU and 4113 RFU
- [AMC] (nM), controls, means [11]: 3516.11 nM
